Here are results for six molecules from patent US8080400B2, “Crystal structure of monoacylglycerol lipase (MGLL)” (Janssen Pharmaceutica N.V., priority 2009, dated 2011).

Data set [1] has as its target T1, MGLL (Homo sapiens, UniProt Q99685, L169S/L176S).
T1 construct: His tag followed by a TEV cleavage site (N); made in house; host or cells: Sf9 insect cells (baculovirus)
T1 sequence (Q99685 with tags, fused parts or gaps L169S/L176S): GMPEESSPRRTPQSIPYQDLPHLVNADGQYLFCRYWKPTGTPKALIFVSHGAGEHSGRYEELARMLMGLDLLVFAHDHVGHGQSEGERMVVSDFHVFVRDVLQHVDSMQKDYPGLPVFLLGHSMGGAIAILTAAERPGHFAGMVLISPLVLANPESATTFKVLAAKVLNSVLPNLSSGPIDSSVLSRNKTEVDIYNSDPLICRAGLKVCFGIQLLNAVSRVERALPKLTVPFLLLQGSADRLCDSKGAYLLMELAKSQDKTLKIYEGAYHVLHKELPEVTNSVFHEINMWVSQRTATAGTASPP
In words: Kinetic analysis: hydrolysis of coumarin arachidonate (C-A) by MGLL constructs. The class given is biochemical. The settings on record: substrate C-A. From the text:
A small fluorescent substrate, 4-methyl coumarin butyrate (4MC-B) was used to compare the activity of the engineered mutants to the activity of wt-MGLL (hMGLL 1-303) (SEQ ID NO: 3). The catalytic efficiency (kcat/KM) for the hydrolysis of the 4MC-B was similar for wt-MGLL (hMGLL 1-303) (SEQ ID NO: 3) and all MGLL mutants tested (Table 2). A larger more aliphatic fluorescent substrate, Coumarin Arachidonate (C-A), structurally more closely related to the MGLL natural substrate, 2-AG, was used to compare the activity of wt-MGLL (hMGLL 1-303) (SEQ ID NO: 3) to TEV cleaved mut-MGLL (hMGLL 1-303 L169S, L176S) (SEQ ID NO: 5).
The Michaelis-Menten parameters for the hydrolysis of 4-methylcoumarin butyrate (4MC-B) and coumarin arachidonate (C-A) substrate were determined using 4-5 nM of MGLL in 20 mM Pipes pH 7 and 150 mM NaCl at 37° C. The change in fluorescence due to substrate hydrolysis was monitored using excitation/emission wavelengths of 335/440 in a Safire II instrument from Tecan. The hyperbolic rates versus substrate concentration curves for the hydrolysis of 4MC-B were fit to the Michaelis-Menten equation using Excel.
The apparent kcat/KM ratio for the hydrolysis of C-A was determined at [S]<<KM. […] The kcat/KM values reported are the average from independent values determined from five substrate concentrations ranging from 700 to 40 nM.

Data set [2] is described as follows: Thermofluor thermal stability assay (Tm of MGLL protein). The note with it: for Tm (midpoint of the melting transition): 0.05 mg/ml protein, 50 mM Pipes pH 7, 200 mM NaCl, 100 μM 1,8-ANS, 0.001% Tween. The class given is physicochemical.
Excerpt: (§1) Thermofluor® assays detect small changes in the intrinsic melting temperature of proteins based on binding of ligands. Compounds that interact preferentially with the native form of the protein will increase the Tm, the temperature at which half of the protein is unfolded (Pantoliano et al. 2001). The technique monitors changes in the fluorescent intensity of dyes such as 1-anilinonaphthalene-8-sulfonic acid (1,8-ANS). The fluorescent dyes are quenched in aqueous environments but increase in fluorescence on binding to the hydrophobic core of denatured proteins.
as §1, with “The Thermofluor®” for “Thermofluor®”, “assay is a powerful tool to screen for small molecule inhibitors interacting with a protein's active site or allosteric site. The assay detects” for “assays detect”
Thermofluor® assays were conducted to characterize wt-MGLL (hMGLL 1-303) (SEQ ID NO: 3) and mut-MGLL (hMGLL 1-303 L169S, L176S) and evaluate if the MGLL mutants could be used for high-throughput screening using Thermofluor®. Three microliters of protein at a concentration of 0.05 mg/ml in 50 mM Pipes pH 7, 200 mM NaCl, 100 μM 1,8-ANS, and 0.001% Tween was added to pre-dispensed compound plates. Wells were overlaid with silicone oil (1 μL, Fluka, type DC 200) to prevent evaporation. Final compound concentrations varied from 150 to 0.15 μM. Assay plates were heated at a rate of 1° C./min for all experiments over a temperature range sufficient to measure protein unfolding. Fluorescence was measured by continuous illumination with UV light (Hamamatsu LC6) supplied via fiber optic and filtered through a custom band-pass filter (380-400 nm; >60D cutoff). Fluorescence emission was detected by measuring light intensity using a CCD camera (Sensys, Roper Scientific) filtered to detect emission at 500±25 nm, resulting in simultaneous and independent readings of all 384 wells. One or more images were collected at each temperature, and the sum of the pixel intensity in a given area of the assay plate was recorded vs temperature, and fit to standard equations to yield the Tm.

Data set [3] in a line: Size exclusion chromatography of protein purified in the absence of detergent (aggregation / monomer). The class given is physicochemical. The method, then:
A pilot purification of wt-MGLL (hMGLL 1-303) (SEQ ID NO: 3), performed in the complete absence of detergent, generated no protein (data not shown). A second purification of wt-MGLL (hMGLL 1-303) (SEQ ID NO: 3) was done with detergent in the lysis buffer only. Frozen cell pellets for wt-MGLL (hMGLL 1-303) (SEQ ID NO: 3) were thawed, resuspended, and lysed in Bugbuster® lysis buffer for 1 hour at 4° C. Bugbuster® lysis buffer is a proprietary lysis buffer from […] that contains detergent. The lysate was clarified by centrifugation at 40,000×g for 1 hr. No detergent was added at this point or during the rest of the purification. From this point forward, the purification protocol and buffers were the same as described below for mut-MGLL. An average of 2.2 mg of wt-MGLL (hMGLL 1-303) (SEQ ID NO: 3) per liter of cell culture was obtained.
Mutant MGLL (mut-MGLL) constructs were purified in the absence of detergent. […] Fractions were analysed by SDS-PAGE. […] Purification yields were determined by Bradford assay using the protein assay kit from BioRad according to manufacturer's instruction with BSA as a standard (Bradford 1976).

Data set [4] concerns MGLL. Put plainly: Kinetic analysis: hydrolysis of 4-methylcoumarin butyrate (4MC-B) by MGLL constructs. Format: biochemical, human. The note with it: substrate 4MC-B; 4-5 nM MGLL, 20 mM Pipes pH 7, 150 mM NaCl, 37° C.; average of 2 or 4 separate assays.
Experimental: The Michaelis-Menten parameters for the hydrolysis of 4-methylcoumarin butyrate (4MC-B) and coumarin arachidonate (C-A) substrate were determined using 4-5 nM of MGLL in 20 mM Pipes pH 7 and 150 mM NaCl at 37° C. […] The hyperbolic rates versus substrate concentration curves for the hydrolysis of 4MC-B were fit to the Michaelis-Menten equation using Excel.

B1: mut-MGLL. 1-303, L169S, L176S: engineered human MGLL 1-303 with cap-domain mutations L169S, L176S; SEQ ID NO: 5 after TEV cleavage (protein)
chain: GMPEESSPRRTPQSIPYQDLPHLVNADGQYLFCRYWKPTGTPKALIFVSHGAGEHSGRYEELARMLMGLDLLVFAHDHVGHGQSEGERMVVSDFHVFVRDVLQHVDSMQKDYPGLPVFLLGHSMGGAIAILTAAERPGHFAGMVLISPLVLANPESATTFKVLAAKVLNSVLPNLSSGPIDSSVLSRNKTEVDIYNSDPLICRAGLKVCFGIQLLNAVSRVERALPKLTVPFLLLQGSADRLCDSKGAYLLMELAKSQDKTLKIYEGAYHVLHKELPEVTNSVFHEINMWVSQRTATAGTASPP
Regarding B1, the “catalytic efficiency for hydrolysis of C-A compared with wt-MGLL” value with MGLL [1] is recorded as “equivalent”. In data set [2], the “quality of the Thermofluor melting transition” value was “strong transition” and the “Tm (midpoint of the melting transition)” value was determined as 56.7 °C. The molecule further had a monomer in data set [3] of 90%.

B2: wt-MGLL.1-303: wild-type human MGLL isoform 2, amino acids 1-303, with N-terminal His tag and TEV site (SEQ ID NO: 3) (protein)
chain: MVDHHHHHHENLYFQGMPEESSPRRTPQSIPYQDLPHLVNADGQYLFCRYWKPTGTPKALIFVSHGAGEHSGRYEELARMLMGLDLLVFAHDHVGHGQSEGERMVVSDFHVFVRDVLQHVDSMQKDYPGLPVFLLGHSMGGAIAILTAAERPGHFAGMVLISPLVLANPESATTFKVLAAKVLNLVLPNLSLGPIDSSVLSRNKTEVDIYNSDPLICRAGLKVCFGIQLLNAVSRVERALPKLTVPFLLLQGSADRLCDSKGAYLLMELAKSQDKTLKIYEGAYHVLHKELPEVTNSVFHEINMWVSQRTATAGTASPP
modifications: N-terminal His tag and TEV site
In the case of B2, in data set [2], the “quality of the Thermofluor melting transition” value is reported as “very poor transition” and the “Tm (midpoint of the melting transition)” value stood at 58 °C.

B3: mut-MGLL. 1-303, L169S, L176S, K160A: engineered human MGLL 1-303 with L169S, L176S and surface mutation K160A (protein)
chain: MVDHHHHHHENLYFQGMPEESSPRRTPQSIPYQDLPHLVNADGQYLFCRYWKPTGTPKALIFVSHGAGEHSGRYEELARMLMGLDLLVFAHDHVGHGQSEGERMVVSDFHVFVRDVLQHVDSMQKDYPGLPVFLLGHSMGGAIAILTAAERPGHFAGMVLISPLVLANPESATTFAVLAAKVLNSVLPNLSSGPIDSSVLSRNKTEVDIYNSDPLICRAGLKVCFGIQLLNAVSRVERALPKLTVPFLLLQGSADRLCDSKGAYLLMELAKSQDKTLKIYEGAYHVLHKELPEVTNSVFHEINMWVSQRTATAGTASPP
For B3, the Km with MGLL [4] was 90 µM.

B4: mut-MGLL. 1-303, L169S, L176S, K165A: engineered human MGLL 1-303 with L169S, L176S and surface mutation K165A (protein)
chain: MVDHHHHHHENLYFQGMPEESSPRRTPQSIPYQDLPHLVNADGQYLFCRYWKPTGTPKALIFVSHGAGEHSGRYEELARMLMGLDLLVFAHDHVGHGQSEGERMVVSDFHVFVRDVLQHVDSMQKDYPGLPVFLLGHSMGGAIAILTAAERPGHFAGMVLISPLVLANPESATTFKVLAAAVLNSVLPNLSSGPIDSSVLSRNKTEVDIYNSDPLICRAGLKVCFGIQLLNAVSRVERALPKLTVPFLLLQGSADRLCDSKGAYLLMELAKSQDKTLKIYEGAYHVLHKELPEVTNSVFHEINMWVSQRTATAGTASPP
Consider B4, for which the Km with MGLL [4] was 137 µM.

B5: mut-MGLL 1-303, L169S, L176S, K36A, K226A: engineered human MGLL 1-303 with L169S, L176S and surface mutations K36A, K226A (protein)
chain: MVDHHHHHHENLYFQGMPEESSPRRTPQSIPYQDLPHLVNADGQYLFCRYWAPTGTPKALIFVSHGAGEHSGRYEELARMLMGLDLLVFAHDHVGHGQSEGERMVVSDFHVFVRDVLQHVDSMQKDYPGLPVFLLGHSMGGAIAILTAAERPGHFAGMVLISPLVLANPESATTFKVLAAKVLNSVLPNLSSGPIDSSVLSRNKTEVDIYNSDPLICRAGLKVCFGIQLLNAVSRVERALPALTVPFLLLQGSADRLCDSKGAYLLMELAKSQDKTLKIYEGAYHVLHKELPEVTNSVFHEINMWVSQRTATAGTASPP
Turning to B5, the Km with MGLL [4] was found to be 123 µM.

B6: mut-MGLL 1-303, L169S, L176S, K226A: engineered human MGLL 1-303 with L169S, L176S and surface mutation K226A (protein)
chain: MVDHHHHHHENLYFQGMPEESSPRRTPQSIPYQDLPHLVNADGQYLFCRYWKPTGTPKALIFVSHGAGEHSGRYEELARMLMGLDLLVFAHDHVGHGQSEGERMVVSDFHVFVRDVLQHVDSMQKDYPGLPVFLLGHSMGGAIAILTAAERPGHFAGMVLISPLVLANPESATTFKVLAAKVLNSVLPNLSSGPIDSSVLSRNKTEVDIYNSDPLICRAGLKVCFGIQLLNAVSRVERALPALTVPFLLLQGSADRLCDSKGAYLLMELAKSQDKTLKIYEGAYHVLHKELPEVTNSVFHEINMWVSQRTATAGTASPP
For B6, in the data set with MGLL [4], the Km turned out to be 110 µM.
